According to article PMC11532494 (Nature Communications, 2024):
Where “and” joins values, the source holds several entries; their conditions need not be identical. Equal entries are not always repeated. No end group written: not given here. *: point of attachment. AMC = Cc1cc(=O)oc2cc(N*)ccc12

Biological target: LpApaH (3) (Legionella pneumophila, UniProt A0A2S6EWV0)
Assay type: biochemical

Substance | [AMC]
QPKKoct (QPKK-{AMC}; not fully specified (residue 4); printed as QPKKoct; also: octanoyl-lysine (which Lys not given here); UniProt P04637 317-320, looked up, fragment) | 53.71 nM and 69.34 nM
QPKKmyr (QPKK-{AMC}; not fully specified (residue 4); printed as QPKKmyr; also: myristoyl-lysine (which Lys not given here); UniProt P04637 317-320, looked up, fragment) | 400.39 nM and 496.09 nM
QPKKdec (QPKK-{AMC}; not fully specified (residue 4); printed as QPKKdec; also: decanoyl-lysine (which Lys not given here); UniProt P04637 317-320, looked up, fragment) | 154.30 nM and 187.50 nM
